In publication PMC6211762:

Target: Macrobrachium rosenbergii nodavirus (MrNV) capsid protein, recombinant, assembled into virus-like particles (Macrobrachium rosenbergii nodavirus)
Test: cryo-EM structure; MrNV VLPs at approximately 0.2 mg/ml, vitrified on thin continuous carbon films; Titan Krios; icosahedral reconstruction at 3.3 Å from 40,883 particles; atomic model of the asymmetric unit

## Macrobrachium rosenbergii nodavirus (MrNV) capsid protein, recombinant, assembled into virus-like particles (natural protein)
  stoichiometry N: 180
